Source: PMC3735542, “Light Driven CO2 Fixation by Using Cyanobacterial Photosystem I and NADPH-Dependent Formate Dehydrogenase” (PLoS ONE, 2013)
Where two headings read alike, the source gives them in different places.

How the values were obtained:
Test in all cases: purified protein
[1] = tested on: T1, NC(=O)c1ccc[n+]([C@@H]2O[C@H](COP(=O)(O)OP(=O)(O)OC[C@H]3O[C@@H](n4cnc5c(N)ncnc54)[C@H](O)[C@@H]3O)[C@@H](O)[C@H]2O)c1; type: biochemical, Pseudomonas sp. 101; conditions: 500 mM formate, PBS, 0.05% Triton X-100
T1 construct: synthetic gene in pET22b (NdeI/NotI), C-terminal His tag kept, E. coli BL21(DE3), about 44 kDa

[2] = tested on: T2, NC(=O)c1ccc[n+]([C@@H]2O[C@H](COP(=O)(O)OP(=O)(O)OC[C@H]3O[C@@H](n4cnc5c(N)ncnc54)[C@H](OP(=O)(O)O)[C@@H]3O)[C@@H](O)[C@H]2O)c1; type: biochemical, Pseudomonas sp. 101; conditions: 500 mM formate, PBS, 0.05% Triton X-100
T2 construct: synthetic gene in pET22b (NdeI/NotI), C-terminal His tag kept, E. coli BL21(DE3), about 44 kDa

[3] = substrate: NC(=O)c1ccc[n+]([C@@H]2O[C@H](COP(=O)(O)OP(=O)(O)OC[C@H]3O[C@@H](n4cnc5c(N)ncnc54)[C@H](OP(=O)(O)O)[C@@H]3O)[C@@H](O)[C@H]2O)c1; type: biochemical, Arabidopsis thaliana
[4] = substrate: O=CO; conditions: 2 mM NADP+, PBS, 0.05% Triton X-100; same doubt on QN or QH
[5] = substrate: NC(=O)c1ccc[n+]([C@@H]2O[C@H](COP(=O)(O)OP(=O)(O)OC[C@H]3O[C@@H](n4cnc5c(N)ncnc54)[C@H](OP(=O)(O)O)[C@@H]3O)[C@@H](O)[C@H]2O)c1; type: biochemical, Solanum tuberosum; conditions: 500 mM formate, PBS, 0.05% Triton X-100; positions 197/199 from methods and Table 1, b33 prints 195/197

Molecule: Pseudomonas FDH (PsFDH) (Pseudomonas sp. 101; D222Q/H224N)
- Km [1]: 1000 ± 600 µM
- Vmax [1]: 0.55 µM/min
- Km [2]: 350 ± 10 µM

B1: Arabidopsis FDH (AtFDH) (Arabidopsis thaliana; D227Q/L229N) (protein)
chain: ASSGDSKKIVGVFYKANEYATKNPNFLGCVENALGIRDWLESQGHQYIVTDDKEGPDCELEKHIPDLHVLISTPFHPAYVTAERIKKAKNLKLLLTAGIGSDHIDLQAAAAAGLTVAEVTGSNVVSVAEDELMRILILMRNFVPGYNQVVKGEWNVAGIAYRAYDLEGKTIGTVGAGRIGKLLLQRLKPFGCNLLYHQRNQMAPELEKETGAKFVEDLNEMLPKCDVIVINMPLTEKTRGMFNKELIGKLKKGVLIVNNARGAIMERQAVVDAVESGHIGGYSGDVWDPQPAPKDHPWRYMPNQAMTPHTSGTTIDAQLRYAAGTKDMLERYFKGEDFPTENYIVKDGELAPQYR
notes: synthetic gene in pET22b (NdeI/NotI), C-terminal His tag kept, E. coli BL21(DE3); partly digested on purification; primer encodes CNLLYH-X-R-X-QMAPEL
- Km [3]: 910 ± 70 µM
- Km [4]: 96000 ± 14000 µM

B2: potato FDH (PoFDH) (Solanum tuberosum; D224Q/L226H) (protein)
chain: LQASPGPKKIVGVFYKANEYAEMNPNFLGCAENALGIREWLESKGHQYIVTPDKEGPDCELEKHIPDLHVLISTPFHPAYVTAERIKKAKNLQLLLTAGIGSDHVDLKAAAAAGLTVAEVTGSNTVSVAEDELMRILILVRNFLPGHHQVINGEWNVAAIAHRAYDLEGKTVGTVGAGRIGRLLLQRLKPFNCNLLYHQRHKMDSELENQIGAKFEEDLDKMLSKCDIVVINTPLTEKTKGMFDKERIAKLKKGVLIVNNARGAIMDTQAVVDACNSGHIAGYSGDVWYPQPAPKDHPWRYMPNQAMTPHISGTTIDAQLRYAAGTKDMLDRYFKGEDFPAENYIVKDGELAPQYR
notes: synthetic gene in pET22b (NdeI/NotI), C-terminal His tag kept, E. coli BL21(DE3); primer encodes CNLLYH-X-R-X-KMDSEL
- Km [5]: 620 ± 50 µM
